± gives the standard deviation of the averaged measurements.
B1: library; a variant is named by its letters at N, in order (parent)
chain: GCUGUCACCGGUGUAUUACCCUAGUGGUCGACCGGUCUGAUGAGUCUNNNNNNAGACGAAACAGC

Columns and labels:
hypoxanthine [1] = variants of: B1; test: FACS-Seq fitted mean relative fluorescence mCherry/BFP without ligand (log10 relative fluorescence); ligand: hypoxanthine (xanthine aptamer); higher = higher reporter protein expression; conditions: HEK293T, ligand present: no
In short: (§1)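 HEK293T libraries were made by lentiviral transduction with a ribozyme-switch mCherry reporter and an EF1α-BFP marker, enriched, and incubated with or without ligand for 48 h. Cells were sorted into 6 mCherry/BFP bins, and each bin's genomic DNA was PCR-amplified, barcoded and run on MiSeq. Fluorescence was derived by normal fitting of the bin counts. The fitted log10(mCherry/BFP) mean was scaled to five spiked-in control ribozymes.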

hypoxanthine [2] = variants of: B1; test: normalized RNA/DNA level with ligand (relative to sTRSVctl = 100) (log10 (% of sTRSVctl)); ligand: hypoxanthine (xanthine aptamer); higher = less ribozyme self-cleavage, higher mRNA level; conditions: ligand concentration (+) RNA-Seq: 5 mM, HEK293T, reporter: mCherry (pCS4076), ligand present: yes
In short: (§2)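 Ribozyme switch library plasmids linked to reporters were introduced into HEK293T cells at 4 µg per 6-well well, with ligand, if any, added 1 h before. Total RNA was extracted with EDTA 72 h later, reverse-transcribed, amplified, barcoded and sequenced. RNA level was computed from RNA over DNA reads relative to a spiked-in non-cleaving sequence or the top sequences, then scaled and log-transformed. The top set was 25 sequences, values were ×100 and log10, and the cutoff was ≥100 DNA reads.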

hypoxanthine [3] = variants of: B1; test: normalized RNA/DNA level without ligand (relative to sTRSVctl = 100) (log10 (% of sTRSVctl)); ligand: hypoxanthine (xanthine aptamer); higher = less ribozyme self-cleavage, higher mRNA level; conditions: HEK293T, reporter: mCherry (pCS4076), ligand present: no
In short: as §2

hypoxanthine [4] = variants of: B1; test: FACS-Seq fitted mean relative fluorescence mCherry/BFP with ligand (log10 relative fluorescence); ligand: hypoxanthine (xanthine aptamer); ligand concentration (+) FACS-Seq: 5 mM; higher = higher reporter protein expression; conditions: HEK293T, ligand present: yes
In short: as §1

Variant	FACS-Seq fitted mean (log10) (hypoxanthine [1])	normalized RNA/DNA level with ligand (log10) (hypoxanthine [2])	normalized RNA/DNA level without ligand (log10) (hypoxanthine [3])	FACS-Seq fitted mean (log10) (hypoxanthine [4])
GCUGUCACCGGUGUAUUACCCUAGUGGUCGACCGGUCUGAUGAGUCUACGGGAAGACGAAACAGC [ACGGGA]	0.166 ± 0.0066	1.84 ± 0.024	1.371 ± 0.0073	0.623 ± 0.022
GCUGUCACCGGUGUAUUACCCUAGUGGUCGACCGGUCUGAUGAGUCUCCGGGCAGACGAAACAGC [CCGGGC]	0.124 ± 0.013	1.99 ± 0.074	1.88 ± 0.019	0.382 ± 0.068
GCUGUCACCGGUGUAUUACCCUAGUGGUCGACCGGUCUGAUGAGUCUCCGGGAAGACGAAACAGC [CCGGGA]	0.607 ± 0.06	1.97 ± 0.022	1.82 ± 0.037	0.674 ± 0.071
GCUGUCACCGGUGUAUUACCCUAGUGGUCGACCGGUCUGAUGAGUCUACGGAUAGACGAAACAGC [ACGGAU]	-0.0352 ± 0.029	1.7216 ± 0.0016	1.24 ± 0.068	0.537 ± 0.024
GCUGUCACCGGUGUAUUACCCUAGUGGUCGACCGGUCUGAUGAGUCUACGGAGAGACGAAACAGC [ACGGAG]	-0.0823 ± 0.0037	1.62 ± 0.031	1.12 ± 0.052	0.482 ± 0.12
GCUGUCACCGGUGUAUUACCCUAGUGGUCGACCGGUCUGAUGAGUCUUCGGGAAGACGAAACAGC [UCGGGA]	0.091 ± 0.059	1.82 ± 0.078	1.23 ± 0.021	0.767 ± 0.094
GCUGUCACCGGUGUAUUACCCUAGUGGUCGACCGGUCUGAUGAGUCUGCGGAUAGACGAAACAGC [GCGGAU]	0.308 ± 0.01	1.863 ± 0.0028	1.48 ± 0.039	0.547 ± 0.08
GCUGUCACCGGUGUAUUACCCUAGUGGUCGACCGGUCUGAUGAGUCUGCGGGAAGACGAAACAGC [GCGGGA]	0.182 ± 0.017	1.97 ± 0.034	1.718 ± 0.012	0.591 ± 0.025
GCUGUCACCGGUGUAUUACCCUAGUGGUCGACCGGUCUGAUGAGUCUACGGCGAGACGAAACAGC [ACGGCG]	-0.0504 ± 0.0018	1.91 ± 0.025	1.42 ± 0.015	0.466 ± 0.082
GCUGUCACCGGUGUAUUACCCUAGUGGUCGACCGGUCUGAUGAGUCUGCGGCGAGACGAAACAGC [GCGGCG]	-0.49 ± 0.037	1.93 ± 0.045	1.514 ± 0.012	-0.0806 ± 0.025
GCUGUCACCGGUGUAUUACCCUAGUGGUCGACCGGUCUGAUGAGUCUUCGGCGAGACGAAACAGC [UCGGCG]	0.493 ± 0.023	1.982 ± 0.0021	1.8 ± 0.03	0.666 ± 0.025

Reference: the supplement of paper PMC6757056
